Consider one molecule from doi:10.1101/2020.02.02.931204, “Fast Transport of RNA Granules by Direct Interactions with KIF5A/KLC1 Motors Prevents Axon Degeneration” (bioRxiv, 2020).

The target of this assay is T1, KLC1 (TPR1-6) fragment, human KNS2 residues 205-501 (human, UniProt Q07866 205-501).
T1 construct: KLC1 (KNS2), human, residues 205-501 (TPR1-6), in the pET28MHL vector; No removal of the tag is described; also called purified human KLC1; source: E. coli BL21 (DE3), purified (Ni-NTA, Superdex-200 gel filtration)
Kind of assay: ITC; KLC1 (TPR1-6) at 20μM in the cell, SFPQ peptide at 200μM in the syringe, 30 injections of 4μL; 20mM HEPES pH 7.5, 150mM NaCl, 0.5mM TCEP, 2% DMSO, 25°C; single site model. Conditions: both partners purified.

T1 sequence (Q07866 205-501): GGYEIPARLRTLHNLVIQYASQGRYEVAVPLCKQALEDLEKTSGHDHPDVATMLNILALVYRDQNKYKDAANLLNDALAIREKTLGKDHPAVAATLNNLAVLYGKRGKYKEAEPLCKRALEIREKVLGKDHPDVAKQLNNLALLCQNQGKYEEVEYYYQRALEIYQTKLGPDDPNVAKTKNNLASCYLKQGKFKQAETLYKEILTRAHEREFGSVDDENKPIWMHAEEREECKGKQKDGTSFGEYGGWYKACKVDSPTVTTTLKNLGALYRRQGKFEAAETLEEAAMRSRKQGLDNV

B1: SFPQ WT peptide spanning the Y-acidic motif (peptide)
peptide: ESEMEDAYHEHQANLLR
notes: SFPQ, human, stretch of the coiled coil domain with the Y-acidic motif; the underlined Y is Y527; also called long SFPQ peptide; WT SFPQ; source: synthetic peptide (KE BioChem)
The term Kd denotes a measure of binding affinity in units of concentration. By stoichiometry N is commonly meant a count of units in the complex or per binding partner. As to B1, the dissociation constant Kd was found to be 3.8 ± 2.3 µM and the “stoichiometry N” value worked out at 1.
